Test results as given in patent US6689364B2, “Borrelia burgdorferi polypeptides and uses thereof” (Tufts University, priority 2000, dated 2004).
“Also recorded” adds a separate entry of the source.

Assays:
[1] = tested on: HLA-DRB1*0401 restricted OspA-specific human T cell clones; test: Proliferation response of human DR4-restricted T cell clones to OspA; assay type: cell-based; conditions: for proliferation response of T cell clones: three human DR4-restricted T cell clones from a patient with treatment-resistant Lyme arthritis, FIG. 2
Method: (§1) Binding of OspA to HLA-DRB1*0401 is determined by measuring stimulation of T cells reactive with wildtype OspA. The stimulation of T cells is determined by measuring OspA-induced proliferation or cytokine production, including interferon gamma and interleukin 13 (see Examples, below).
(§2) Human T cells were cloned from the synovial fluid of an HLA DRB1*0401 homozygous patient based upon their ability to recognize the epitope OspA165-173 in the context of HLA-DRB1*0401. These clones were then tested for their ability to respond functionally to wild type versus FTK OspA by either proliferation or cytokine secretion.
(§3) Three different human DR4-restricted T cell clones from a patient with treatment-resistant Lyme arthritis were selected for their ability to respond to the wild type OSpA165-173 peptide. […] These T cells proliferate in response to stimulation with wildtype OspA, but not FTK-OspA.

[2] = tested on: HLA-DRB1*0401 restricted OspA-specific human T cell clones; test: Cytokine production by T cell clones on stimulation with OspA; assay type: cell-based; conditions: for production of interferon gamma by T cell clones: FIG. 3A; for production of interleukin 13 by T cell clones: FIG. 3B
Method: as §1, §2, §3

monoclonal antibody LA-2 = test: In vitro binding of protective anti-OspA monoclonal antibody LA-2; conditions: in vitro assay, FIG. 6
Excerpt: Monoclonal antibody LA-2, which provides passive immunity against B. burgdorferi in mice, binds an epitope in OspA.

N40 B. burgdorferi = test: Mouse vaccination and B. burgdorferi challenge, protection against Lyme arthritis; assay type: in vivo, mice; conditions: trials A and B together; for mice protected from development of arthritis: 10 μg vaccine on days 0, 14, 28, day 35 challenge with 5×10^3 or 1×10^4 N40 B. burgdorferi in footpad, day 56 histology; for mice protected from development of arthritis (protected/total): same protocol, number of mice
Excerpt: The mouse vaccination protocol was based upon experiments in the literature which initially identified OspA as having potential as a vaccine. The vaccine has not been tested in vivo with tick challenge due to the technically difficult nature of the animal handling for such experiments. However, the artificial system used here has been utilized by others in the past and reflects accurately on the protective ability of the modified vaccine. (Fikrig et al, 1997 Immunity 6:531-539; Bockenstedt et al,1993 J Immunol 151:900-906, Fikrig et al, 1992 PNAS 89:5418-5421)
The correlation between infection and arthritis, measured for the first vaccination trial, was 1:1.
(§4) On day 35, the vaccinated mice were exposed to 5×10^3 or 1×10^4 passage 0 N40 B. burgdorferi in the right footpad. On day 56, mice were sacrificed and the following tissue samples were taken for further analysis: ankles (for histology to analyze arthritis), blood and bladder (for culture to detect B. burgdorferi), serum (for serology to determine the antibody response), and ears (for PCR to detect B. burgdorferi).

OspA = test: Serum OspA-specific IgG in immunized mice; assay type: in vivo; conditions: for serum OspA-specific IgG pre-infection: FIG. 7A; for serum OspA-specific IgG post-infection: FIG. 7B
Excerpt: as §4

Molecule | proliferation response of T cell clones [1] | production of interferon gamma by T cell clones [2] | production of interleukin 13 by T cell clones [2] | binding of monoclonal antibody LA-2 (monoclonal antibody LA-2) | mice protected from development of arthritis (N40 B. burgdorferi) | mice protected from development of arthritis (protected/total) (N40 B. burgdorferi) | serum OspA-specific IgG pre-infection (OspA) | serum OspA-specific IgG post-infection (OspA) | ability to stimulate OspA-specific T cell clones (proliferation or cytokine secretion) ([1]; clones from synovial fluid of an HLA DRB1*0401 homozygous patient)
wildtype OspA: recombinant wildtype B. burgdorferi outer surface protein A [reference compound] | proliferate | induces production | induces production | binds; also recorded: equivalently | 75% | 12/16 | similar | similar | –
FTK-OspA (protein) KQNVSSLDEKNSVSVDLPGEMKVLVSKEKNKDGKYDLIATVDKLELKGTSDKNNGSGVLEGVKADKSKVKLTISDDLGQTTLEVFKEDGKTLVSKKVTSKDKSSTEEKFNEKGEVSEKIITRADGTRLEYTGIKSDGSGKAKEVLKGFTLEGKLTAEKTTLVVKEGTVTLSKNISKSGEVSVELNDTDSSAATKKTAAWNSGTSTLTITVNSKKTKDLVFTKENTITVQQYDSNGTKLEGSAVEITKLDEIKNALK | not | not | not | binds; also recorded: equivalently | 87.5% | 14/16 | similar | similar | significantly decreased
